# Assay results reported in patent US20250136678A1 (BIOSION, published 2025).
# Residue numbers refer to the chain shown, from its start.
# B1: mouse antibody E1B1B8C7 (antibody, V domains shown)
# VH: QVQLQQPGAELVRPGTSVKLSCKASGYSFTNYWVNWVKQRPGQGLEWIGMVHPSGSETRLNQQFKDKATLTVDKSSNTAYMQLNRPTSEDSAVYYCARVWSGNAFDYWGQGTTLIVSS
# VL: DIVMTQSPSSLTVTAGEKVTLNCLSSQSLLNSGNQRNYLTWYQQKPGQPPKLLIYWASTRDSGVPDRFTGGGSGVDFTLTIYRVQAEDLAFYYCQNGFSFPFTFGSGTKLEMK
# notes: Mouse hybridoma monoclonal antibody; also called mouse E1B1B8C7
# B2: chE1B1B8C7-V2 (antibody, human IgG1, kappa, V domains shown)
# VH: B1 VH
# VL: DIVMTQSPSSLTVTAGEKVTLNCLSSQSLLNAGNQRNYLTWYQQKPGQPPKLLIYWASTRDSGVPDRFTGGGSGVDFTLTIYRVQAEDLAFYYCQNGFSFPFTFGSGTKLEMKR
# notes: Chimeric human IgG1/kappa; also called chimeric antibody chE1B1B8C7-V2
# B3: chE1B1B8C7-V1 (antibody, human IgG1, kappa, V domains shown)
# VH: B1 VH
# VL: B2 VL with N31A, A32S
# notes: Chimeric human IgG1/kappa; also called chimeric antibody chE1B1B8C7-V1
# B4: chE1B1B8C7-V3 (antibody, human IgG1, kappa, V domains shown)
# VH: B1 VH
# VL: B2 VL with A32E
# notes: Chimeric human IgG1/kappa; also called chimeric antibody chE1B1B8C7-V3
# B5: mouse antibody E1A1F4B5 (antibody, V domains shown)
# VH: B1 VH with V51I, Q63R, K65R, A68T, K74R
# VL: B1 VL with L24M, R36K, Y93F
# notes: Mouse hybridoma monoclonal antibody purified on Protein A
# B6: mouse antibody E1H4C3E5 (antibody, V domains shown)
# VH: B1 VH with V34M, V51I, T58S, Q63K, E89A
# VL: B1 VL with N22S, L24M, R36K, Y55F, V75T, D76L, K113R
# notes: Mouse hybridoma monoclonal antibody
# B7: huE1B1B8C7-V2 (antibody, human IgG1, kappa, V domains shown)
# VH: QVQLVQSGAEVKKPGASVKVSCKASGYSFTNYWVNWVRQAPGQGLEWIGMVHPSGSETRLNQQFKDKATLTVDTSTSTVYMELSSLRSEDTAVYYCARVWSGNAFDYWGQGTLVTVSS
# VL: DIVMTQSPDSLAVSLGERATINCLSSQSLLASGNQRNYLTWYQQKPGQPPKLLIYWASTRDSGVPDRFTGSGSGVDFTLTISSVQAEDVAVYYCQNGFSFPFTFGQGTKLEIKR
# notes: Humanized, human IgG1/kappa; X positions as numbered in CLM-00003 and CLM-00004
# B8: huE1B1B8C7-V5 (antibody, human IgG1, kappa, V domains shown)
# VH: B7 VH with K67R
# VL: B7 VL
# notes: as for B7
# B9: huE1B1B8C7-V11 (antibody, human IgG1, kappa, V domains shown)
# VH: B7 VH with S28T
# VL: B7 VL with T69S
# notes: as for B7
# B10: huE1B1B8C7-V4 (antibody, human IgG1, kappa, V domains shown)
# VH: B7 VH with I48M
# VL: B7 VL
# notes: as for B7
# B11: huE1B1B8C7-V1 (antibody, human IgG1, kappa, V domains shown)
# VH: B7 VH with T74K, V79A
# VL: B7 VL
# notes: as for B7
# B12: huE1B1B8C7-V12 (antibody, human IgG1, kappa, V domains shown)
# VH: B7 VH with T74K, V79A
# VL: B7 VL with V75T
# B13: huE1B1B8C7-V16 (antibody, human IgG1, kappa, V domains shown)
# VH: B7 VH
# VL: B7 VL with V84L
# notes: as for B7
# B14: huE1B1B8C7-V15 (antibody, human IgG1, kappa, V domains shown)
# VH: B7 VH with T74K, V79A
# VL: B7 VL with V84L
# notes: as for B7
# B15: huE1B1B8C7-V7 (antibody, human IgG1, kappa, V domains shown)
# VH: B7 VH with L70M
# VL: B7 VL
# notes: as for B7
# B16: huE1B1B8C7-V8 (antibody, human IgG1, kappa, V domains shown)
# VH: B7 VH with V72R
# VL: B7 VL
# notes: as for B7
# B17: huE1B1B8C7-V9 (antibody, human IgG1, kappa, V domains shown)
# VH: B7 VH with T74K, V79A
# VL: B7 VL with T69S
# notes: as for B7
# B18: huE1B1B8C7-V10 (antibody, human IgG1, kappa, V domains shown)
# VH: B7 VH
# VL: B7 VL with T69S
# notes: as for B7
# B19: huE1B1B8C7-V3 (antibody, human IgG1, kappa, V domains shown)
# VH: B7 VH with S28T
# VL: B7 VL
# notes: as for B7
# B20: huE1B1B8C7-V14 (antibody, human IgG1, kappa, V domains shown)
# VH: B7 VH with S28T
# VL: B7 VL with V75T
# notes: as for B7
# B21: huE1B1B8C7-V6 (antibody, human IgG1, kappa, V domains shown)
# VH: B7 VH with A68V
# VL: B7 VL
# notes: as for B7
# B22: huE1B1B8C7-V17 (antibody, human IgG1, kappa, V domains shown)
# VH: B7 VH with S28T
# VL: B7 VL with V84L
# notes: as for B7
# B23: huE1B1B8C7-V13 (antibody, human IgG1, kappa, V domains shown)
# VH: B7 VH
# VL: B7 VL with V75T
# notes: as for B7
# What was measured:
# [1] = target: human CLDN18.1 (Uniprot No:P56856) (human) (UniProt P56856); experiment: FACS on BAF3-CLDN18.1 cells, FITC fluorescence; item A1; blank without antibody (C1) MFI 242
# [2] = target: human CLDN18.1 (Uniprot No:P56856) (human) (UniProt P56856); experiment: FACS on BAF3-CLDN18.1 cells, FITC fluorescence; item B1; blank without antibody (C1) MFI 242
# [3] = target: T1, human CLDN18.2 (NP_001002026.1) (human, UniProt P56856-2 1-261); experiment: FACS on BAF3-CLDN18.2 cells, FITC fluorescence; item F7; blank without antibody (H7) MFI 178
# T1 construct: whole, on cells; KATO III cells also served as target cells in the ADCC assay; also called Claudin18.2; Claudin-18 splice variant 2
# [4] = target: T1, human CLDN18.2 (NP_001002026.1); experiment: FACS on BAF3-CLDN18.2 cells, FITC fluorescence; item G7; blank without antibody (H7) MFI 178
# [5] = target: T1, human CLDN18.2 (NP_001002026.1); experiment: FACS on 293T-CLDN18.2 cells, PE fluorescence; item A4; blank without antibody (E4) MFI 21.8
# [6] = target: T1, human CLDN18.2 (NP_001002026.1); experiment: FACS on 293T-CLDN18.2 cells, PE fluorescence; item B4; blank without antibody (E4) MFI 21.8
# [7] = target: T1, human CLDN18.2 (NP_001002026.1); experiment: FACS on 293T-CLDN18.2 cells, PE fluorescence; item D4; blank without antibody (E4) MFI 21.8
# [8] = target: T1, human CLDN18.2 (NP_001002026.1); experiment: cell-based binding FACS on BAF3-CLDN18.2 cells, MFI against Con of mAb, nM is the unit of the x axis; the three mouse curves overlap and level off near MFI 2300-2400
# Protocol: (§1) The BAF3-CLDN18.2, BAF3-CLDN18.1 and BAF3 cells were harvested, washed twice and re-suspended in phosphate buffered saline (PBS) containing 2% v/v Fetal Bovine Serum (FACS buffer), BAF3 cells were used here as blank control. The cells, 1×10⁵ per well, were incubated in 96 well-plates with 100 μl serially diluted antibodies or controls (starting from 10 μg/mL, 5-fold serial dilution) in FACS buffer for 50 minutes on ice. […] Following an incubation of 50 minutes at 4° C. in dark, cells were washed three times and re-suspended in FACS buffer. Fluorescence was measured using a Becton Dickinson FACS Canto II-HTS equipment, and the MFI (mean fluorescence intensity) was plotted against antibody concentration. Data was analyzed using Graphpad Prism and EC₅₀ values were reported.
# [9] = target: T1, human CLDN18.2 (NP_001002026.1); experiment: cell-based blocking FACS on BAF3-CLDN18.2 cells; competitor: biotin labeled Zolbetuximab, SA-PE detection, nM is the unit of the x axis; signal falls from about 800-870 to about 110 at the last point
# Protocol: The anti-CLDN18.2 antibodies of the disclosure, and the controls were diluted with FACS buffer starting from 10 μg/mL with 5-fold serial dilution. BAF3-CLDN18.2 cells were harvested from cell culture flasks at the log phase, washed twice and re-suspended in PBS containing 2% v/v Fetal Bovine Serum (FACS buffer). […] Then the cells were washed twice with FACS buffer, added with 100 μl/well SA-PE (1:200 dilution in FACS buffer, Cat #:016-110-084, Jackson Immunoresearch), and incubated for 40 minutes at 4° C. in dark. Cells were washed twice and re-suspended in FACS buffer. Fluorescence was measured using a Becton Dickinson FACS Canto II-HTS equipment. Data was analyzed using Graphpad Prism and IC₅₀ values were reported.
# [10] = target: T1, human CLDN18.2 (NP_001002026.1); experiment: cell-based binding FACS on BAF3-CLDN18.2 cells; y axis unlabelled, nM is the unit of the x axis; the three chimeric curves run close together and reach about 7200-7700 at the last point without a clear plateau
# Protocol: as §1
# [11] = target: T1, human CLDN18.2 (NP_001002026.1); experiment: cell-based binding FACS on BAF3-CLDN18.2 cells, MFI against Con of mAb, nM is the unit of the x axis; curve lies in a bundle of overlapping curves reaching MFI about 5000-6000
# Protocol: as §1
# [12] = target: T1, human CLDN18.2 (NP_001002026.1); experiment: cell-based binding FACS on BAF3-CLDN18.2 cells, MFI against Con of mAb, nM is the unit of the x axis; curve lies in a bundle of close curves reaching MFI about 5300-5900
# Protocol: as §1
# [13] = target: T1, human CLDN18.2 (NP_001002026.1); experiment: cell-based binding FACS on BAF3-CLDN18.2 cells, MFI against Con of mAb (nM)
# Protocol: as §1
Molecule,EC50 [11] [nM],EC50 [12] [nM],further results
"anti-CLDN18 antibody (Cat #ab203563, Abeam)",,,MFI at 1000 ng/ml [1]: 5340; MFI at 500 ng/ml [2]: 4020; MFI at 1000 ng/ml [3]: 3340; MFI at 500 ng/ml [4]: 3020
hIgG (antibody),,,MFI at 10000 ng/ml [5]: 26.9; MFI at 2500 ng/ml [6]: 28.7; MFI at 156.25 ng/ml [7]: 21.4
B1,,,EC50 [8]: 2.24 nM; IC50 [9]: 6.86 nM
B2,,,EC50 [10]: 3.91 nM
B3,3.08,,EC50 [10]: 6.19 nM
B4,,,EC50 [10]: 7.79 nM
B5,,,EC50 [8]: 1.76 nM; IC50 [9]: 5.29 nM
B6,,,EC50 [8]: 1.49 nM; IC50 [9]: 4.38 nM
B7,5.18,,
B8,4.33,,
B9,,5.39,
B10,3.63,,
B11,3.32,,
B12,,3.06,
B13,,3.29,
B14,,2.76,
B15,3.89,,
B16,,,binding result [13]: binds
B17,2.31,,
B18,,5.74,
B19,3.7,,
B20,,4.03,
B21,3.1,,
B22,,4.87,
B23,,3.46,
